{
  "source": "patent US20150141617A1",
  "about": "“PRODUCTION AND PURIFICATION OF ACTIVE EUKARYOTIC FORMYLGLYCINEGENERATING ENZYME (FGE) VARIANTS” (Universität Bielefeld, priority 2013, published 2015)",
  "key": {"[1]": {"target": "FGE-HA (human formylglycine generating enzyme, wild type, C-terminal HA tag, expressed from pBI-FGE-HA in mammalian cells) (human) (UniProt Q8NBK3)", "test": "cell-based or functional assay"}, "[2]": {"target": "T1, 23 amino acid substrate peptide Ac-MTDFYVPVSLCTPSRAALLTGRS-NH2 (SEQ ID NO: 46)", "T1 chain": "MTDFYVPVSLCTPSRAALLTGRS"}, "[3]": {"target": "the molecule itself", "test": "size exclusion chromatography (Superdex 200), non-reducing SDS-PAGE and western blot with FGE antiserum", "protocol": "FIG. 16: Separation of the recombinant fl-FGE-R69A/R72A monomer and dimer by size-exclusion chromatography. (A) The pooled elution fractions from Ni-NTA purification (SM) were further purified in a Superdex (SD200 10/300 GL) column using Ettan LC system (GE health care). The eluted material in 0.5 ml of running buffer (20 mM Tris, pH 8.0 containing 200 mM NaCl) were collected and analyzed in SDS-PAGE under reducing conditions followed by coomassie staining (B) Equal volume of elution fractions obtained as shown in ‘(A)’ were resolved in SDS-PAGE under non-reducing conditions followed by western blot and membrane decorated with FGE anti-serum. (SM: starting material; FGE: monomer; FGE2: dimer)."}, "[4]": {"target": "T2, steroid sulfatase (STS), expressed from pBI-STS in MSDi Tet-On cells (UniProt P08842 22-583, limits assumed)", "T2 sequence (looked up)": "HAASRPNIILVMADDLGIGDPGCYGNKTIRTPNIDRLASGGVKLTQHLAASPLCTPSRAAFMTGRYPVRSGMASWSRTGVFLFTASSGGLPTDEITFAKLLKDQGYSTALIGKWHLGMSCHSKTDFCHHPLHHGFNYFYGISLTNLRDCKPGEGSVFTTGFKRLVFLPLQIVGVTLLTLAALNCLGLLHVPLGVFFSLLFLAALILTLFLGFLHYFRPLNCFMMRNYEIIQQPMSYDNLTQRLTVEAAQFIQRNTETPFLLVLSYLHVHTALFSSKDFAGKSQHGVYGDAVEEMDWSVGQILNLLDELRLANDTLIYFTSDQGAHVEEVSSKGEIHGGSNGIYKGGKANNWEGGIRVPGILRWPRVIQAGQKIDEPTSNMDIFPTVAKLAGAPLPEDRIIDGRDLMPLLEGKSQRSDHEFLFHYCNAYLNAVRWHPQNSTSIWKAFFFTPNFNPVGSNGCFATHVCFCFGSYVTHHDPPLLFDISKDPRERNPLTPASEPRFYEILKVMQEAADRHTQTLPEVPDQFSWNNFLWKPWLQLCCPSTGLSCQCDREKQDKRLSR", "test": "cell-based or functional assay"}, "[5]": {"tested_on": "23-aa long substrate peptide Ac-MTDFYVPVSLCTPSRAALLTGRS-NH2", "test": "In vitro FGE activity assay (MALDI-ToF MS) with purified recombinant FGE from insect cells", "format": "biochemical", "protocol": "a) fl-FGE-R69A/R72A (SEQ ID NO: 4) is active and e.g. generates FGly within a 23-aa long substrate peptide 16 pmol of the 23 amino acid (aa) long peptide Ac-[…]-NH2 (SEQ ID NO:46) were incubated with 12 ng of fl-FGE-R69A/R72A for 20 min at 37° C. under assay conditions (50 mM Tris, 67 mM NaCl, 15 μM CaCl2, 0.33 mg/mL BSA, 2 mM DTT, pH 9.3 in a total volume of 30 μL).\nThe reaction was stopped by adding 3 μL of 20% trifluoroacetic-acid (TFA), immediately followed by vortexing and by a short centrifugation at 10000×g. The peptide was purified and concentrated by C18-Zip-Tip treatment. Therefore the Zip-Tip was prepared by pipetting three times 10 μL of 50% acetonitrile, 0.05% TFA in water and three times 10 μL 0.1% TFA in water. The 33 μL sample was pipetted 10 times up and down. The bound peptide was washed by pipetting 10 times 10 μL 0.1% TFA in water and was eluted in 10 μL 50% acetonitrile, 0.05% TFA in water by pipetting 10 times up and down. For MS-analysis the following matrix was prepared freshly: 40 μL of a saturated α-cyano-hydroxycinnamic acid solution in aceton were added to 10 μL of a solution containing 10 mg/mL nitrocellulose in 50% Aceton/50% Isopropanol (v/v). 0.5 μL of the matrix were spotted onto a polished steel target and 1 μL of the purified sample was added. The dried sample spot was analyzed by MALDI-ToF mass spectrometry using the Ultra flextreme spectrometer from Bruker Daltronics. The cysteine containing substrate peptide (2526.28 [M+H]^+) and the FGly containing product peptide (2508.29 [M+H]^+) were detected.\nb) fl-FGE-R69A/R72A (SEQ ID NO:4) is able to generate FGly by using GSH as reductant:10 times stock solutions of DTT and GSH were prepared in 20 mM Tris pH 9.3. For the reaction, 13 ng of Baculo-fl-FGE were incubated with 16 pmol of the 23 aa-long substrate peptide, 2 mM DTT or 5 mM reduced glutathione for 15 min at 37° C. under assay conditions (50 mM Tris, 67 mM NaCl, 15 μM CaCl2, 0.33 mg/mL BSA, pH 9.3 in a total volume of 30 μL). The reactions were stopped and prepared further for MS-analysis as described above. The ratio of the intensity of the FGly-product peptide divided by the sum of the substrate and product intensities multiplied with 100 yields %-turnover of the substrate peptide. Based on that, specific activities were calculated.\nThe dependence of FGly-generating activity of recombinant fl-FGE-R69A/R72A on the reducing agents DTT and GSH were analyzed at pH 9.3 under standard assay conditions (FGE and substrate peptide were incubated at 37° C. in 50 mM Tris/HCl, 67 mM NaCl, and 0.33 mg/ml BSA in 30 μl volume. The reaction was started by addition of substrate) using a MALDI-mass spectrometry based in vitro activity assay (Ennemann et al., 2013 and FIG. 7).\nThe pH-dependence for in vitro activity of recombinant fl-FGE-R69A/R72A and Δ72-FGE-wt was analyzed under optimal DTT and GSH concentrations. Accordingly, the activity of recombinant fl-FGE-R69A/R72A in the presence of 2 mM DTT, under standard assay conditions, was measured in buffers of pH ranging from pH 6.5 to 11.0 (FIG. 19A). […] In the presence of 5 mM GSH, the maximal activity was also observed at pH 9.3 and a very similar activity profile ranging from pH 7.5 to 11 (FIG. 19B). […] In summary, fl-FGE-R69A/R72A requires less alkaline conditions for optimum activity than Δ72-FGE-wt."}, "[6]": {"tested_on": "cysteine-containing substrate peptide", "test": "In vitro FGE activity assay with conditioned media from CHO-FD11 cells", "format": "biochemical", "settings": "5 mM GSH vs 2 mM DTT, pH 9.3, conditioned media", "protocol": "FGE activity was assayed using conditioned media that contained either secreted fl-FGE (obtained from CHO-FD FGE-His6 cells) or Δ72-FGE (obtained from CHO-FD Tet-On cells after transient co-transfection with pBI-FGE-HA and pIRES-Furin constructs). After expression for 48 h at 1% or 2.5% FCS containing DMEM, the medium was collected and centrifuged at 500×g for 5 min. The supernatant was analyzed by SDS-PAGE and western blotting and aliquots were directly used for activity testing.\nThe activity assay was performed in triplicates with three sets of conditioned media at pH 9.3 under standard conditions as described earlier (4) with some modifications; no BSA was added to the reaction mixture and 2 mM DTT or 5 mM GSH were used as reducing agents.\nThe inventors have recently shown that the N-terminal part of FGE (residues 34-68) is essential to activate sulfatases in vivo (12). By contrast, the N-terminal extension was not required for in vitro FGly-generating activity of purified secreted Δ72-FGE. […] To assess the physiological consequence of the N-terminal truncation by furin on the function of FGE, the inventors analyzed the FGly-generating activity of the processed and the unprocessed forms of secreted FGE in the presence of glutathione (GSH), a physiological reductant, or DTT serving as a control. […]"}, "[7]": {"test": "Stability of purified recombinant FGE upon storage (SDS-PAGE, Coomassie staining or western blotting)", "format": "physicochemical", "settings": "thawing from −80° C. and short-term storage at 4° C.", "protocol": "Purified enzymes are preferably stored frozen at −20° C. or −80° C., but it is known that the freeze-thaw cycle can lead to a decrease in the stability of proteins and/or accompanied loss of enzymatic activity. To minimize this effect, it is common to add stabilizing agents to preserve the stability and functionality of proteins during long-term storage. Analyses of conditions that affect the stability of purified recombinant fl-FGE-R69A/R72A and Δ72-FGE-wt were performed. The stability was assessed by analyzing the purified protein by SDS-PAGE and subsequently visualized by Coomassie staining or western blotting using FGE anti-serum as described above.\nGeneration of truncated FGE was increasingly detected upon removing the imidazole by size exclusion chromatography (Panel SEC, FIG. 17A). To gain further insights, aliquots of the purified fraction from size exclusion chromatography were incubated at 4° C. for either 3.5 h or 20 h in the presence of various additives like NaCl, imidazole, arginine and glycerol and later assessed by western blot using FGE anti-serum."}},
  "data": [
    {"molecule": "human furin (Gene ID 5045), expressed from a pIRES construct in CHO-FD11 cells (from UniProt P09958 108-794)", "values": [
      {"measurement": "share of Δ72-FGE in secretions of CHO-FD11 Tet-On cells co-expressing FGE and the PC (western blot)", "setting": "[1]", "result": 100, "unit": "%"}
    ]},
    {"molecule": "fl-FGE-R69A/R72A (SEQ ID NO: 4), produced in High Five insect cells (enzyme, It has four extra N-terminal residues (ADEF), human FGE from S34 with R69A and R72A, and a C-terminal SGRGS-His7; After size exclusion it occurs as a monomer and as a disulfide-bridged dimer; also called Baculo-fl-FGE; recombinant fl-FGE-R69A/R72A) ADEFSQEAGTGAGAGSLAGSCGCGTPQRPGAHGSSAAAHAYSAEANAPGPVPGERQLAHSKMVPIPAGVFTMGTDDPQIKQDGEAPARRVTIDAFYMDAYEVSNTEFEKFVNSTGYLTEAEKFGDSFVFEGMLSEQVKTNIQQAVAAAPWWLPVKGANWRHPEGPDSTILHRPDHPVLHVSWNDAVAYCTWAGKRLPTEAEWEYSCRGGLHNRLFPWGNKLQPKGQHYANIWQGEFPVTNTGEDGFQGTAPVDAFPPNGYGLYNIVGNAWEWTSDWWTVHHSVEETLNPKGPPSGKDRVKKGGSYMCHRSYCYRYRCAARSQNTPDSSASNLGFRCAADRLPTMDSGRGSHHHHHHH", "values": [
      {"measurement": "specific activity, FGly generation in the 23-aa substrate peptide (MALDI-ToF MS), 2 mM DTT as reductant", "setting": "[2]", "result": "24.1±1.7 mU/mg in presence of the control reductant DTT"},
      {"measurement": "specific activity, FGly generation in the 23-aa substrate peptide (MALDI-ToF MS), 5 mM GSH as reductant", "setting": "[2]", "result": "15.6±1.3 mU/mg in presence of GSH"},
      {"measurement": "binding result", "setting": "[3]", "result": "binds"}
    ]},
    {"molecule": "FGE-HA (human formylglycine generating enzyme, wild type, C-terminal HA tag, expressed from pBI-FGE-HA in mammalian cells) (enzyme, UniProt Q8NBK3 34-374, looked up, not shown: small tags and cut ends) SQEAGTGAGAGSLAGSCGCGTPQRPGAHGSSAAAHRYSREANAPGPVPGERQLAHSKMVPIPAGVFTMGTDDPQIKQDGEAPARRVTIDAFYMDAYEVSNTEFEKFVNSTGYLTEAEKFGDSFVFEGMLSEQVKTNIQQAVAAAPWWLPVKGANWRHPEGPDSTILHRPDHPVLHVSWNDAVAYCTWAGKRLPTEAEWEYSCRGGLHNRLFPWGNKLQPKGQHYANIWQGEFPVTNTGEDGFQGTAPVDAFPPNGYGLYNIVGNAWEWTSDWWTVHHSVEETLNPKGPPSGKDRVKKGGSYMCHRSYCYRYRCAARSQNTPDSSASNLGFRCAADRLPTMD", "values": [
      {"measurement": "relative specific activity of STS after co-expression in immortalized MSD Tet-On cells", "setting": "[4]", "result": "~50", "unit": "fold"}
    ]},
    {"molecule": "Δ72-FGE: human FGE that lacks the N-terminal domain (amino acid residues 1-72), SEQ ID NO:6 (protein, cleaved FGE in position 72 , inacitve FGE) ADLGSSMEFEANAPGPVPGERQLAHSKMVPIPAGVFTMGTDDPQIKQDGEAPARRVTIDAFYMDAYEVSNTEFEKFVNSTGYLTEAEKFGDSFVFEGMLSEQVKTNIQQAVAAAPWWLPVKGANWRHPEGPDSTILHRPDHPVLHVSWNDAVAYCTWAGKRLPTEAEWEYSCRGGLHNRLFPWGNKLQPKGQHYANIWQGEFPVTNTGEDGFQGTAPVDAFPPNGYGLYNIVGNAWEWTSDWWTVHHSVEETLNPKGPPSGKDRVKKGGSYMCHRSYCYRYRCAARSQNTPDSSASNLGFRCAADRLPTMDSGRGSHHHHHHH", "values": [
      {"measurement": "pH of maximal activity", "setting": "[5]; 2 mM DTT, MTGC buffer pH 6.5-11.0", "result": "~10"},
      {"measurement": "FGly generation in substrate peptide in presence of DTT", "setting": "[5]; 2 mM DTT, pH 9.3, 37° C.", "result": "converts the cysteine-containing substrate peptide to the FGly-containing product peptide"},
      {"measurement": "dependence of activity on reducing agent (DTT or GSH)", "setting": "[5]; in vitro, pH 9.3", "result": "strictly relies on DTT"},
      {"measurement": "specific activity", "setting": "[5]; purified from Baculovirus expression system (Example 7)", "result": "70-90 mU/mg"},
      {"measurement": "FGly-generating activity (% substrate turnover) in the presence of GSH normalized to that of DTT (100%)", "setting": "[6]", "result": "barely active in the presence of GSH"},
      {"measurement": "molecular integrity after storage", "setting": "[7]", "result": "did not lead to any change in the molecular integrity"}
    ]}
  ]
}
